This is an account of results in the supplement of paper PMC7877785.

± gives the uncertainty stated by the source.

This series in a line: self-splicing fitness, log relative to wild type (ln ratio); higher = more splicing; Tetrahymena group I intron in knt gene, E. coli kanamycin selection, DiMSum; sequences stand for … in CUCUCU…GGAGGGAAAAGUUAUCAGGCAUGCACCUGGUAGCUAGUCUUUAAACCAAUAGAUUGCAUCGGUUUAAAAGGCAAGACCGUCAAAUUGCGGGAAAGGGGUCAACAGCCGUUCAGUACCAAGUCUCAGGGGAAACUUUGAGAUGGCCUUGCAAAGGGUAUGGUAAUAAGCUGACGGACAUGGUCCUAACCACGCAGCCAAGUCCUAAGUCAACAGAUCUUCUGUUGAUAUGGAUGCAGUUCACAGACUAAAUGUCGGUCGGGGAAGAUGUAUUCUUCUCAUAAGAUAUAGUCGGACCUCUCCUUAAUGGGAGCUAGCGGAUGAAGUGAUGCAACACUGGAGCCGCUGGGAACUAAUUUGUAUGCGAAAGUAUAUUGAUUAGUUUUGGAGUACUCGUGGUCG
The method, boiled down:
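Fitness was computed with DiMSum as the error-weighted combination of replicate fold changes, kanamycin versus none, each normalised to wild type. The library randomised all eight intron nucleotides of the P1ex region, with the intron placed in the knt kanamycin-resistance gene on pET-22b(+) in E. coli BL21(DE3). Six replicate transformations were grown overnight at 37°C or 30°C on LB agar with or without 25 μg/mL kanamycin, plus 100 μg/mL carbenicillin, 50 μM IPTG and 0.2% rhamnose. Pooled colonies were amplicon-sequenced on an Illumina HiSeq 2500.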

Turning to GAGAAGCAAUAUUACGUAGA, the “self-splicing fitness (ln)” value by setting is: (30 °C) -2 ± 0.14; (37 °C) -0.626 ± 0.14.
For UGCUAGCAAUAUUACGGAAA, in that order: -2.19 ± 0.27 and -2.19 ± 0.31.
On the same counts, the results for GGCGAGCAAUAUUACGUAUA are -1.86 ± 0.14 and -1.07 ± 0.13.
On the same counts, the results for UAUAAGCAAUAUUACGGACU are -2.12 ± 0.11 and -0.796 ± 0.11.
Consider ACGCAGCAAUAUUACGGGCA, for which the “self-splicing fitness (ln)” value was -1.08 ± 0.081 (30 °C) and -0.293 ± 0.094 (37 °C).
On the same counts, the results for UCUAAGCAAUAUUACGUUCU are -3.14 ± 0.22 and -1.47 ± 0.14.
For the sequence UAUGAGCAAUAUUACGCAGA, the “self-splicing fitness (ln)” value reads like this: (30 °C) -3.3 ± 0.29; (37 °C) -2.6 ± 0.23.
On the same counts, the results for UGUGAGCAAUAUUACGAUGA are -2.75 ± 0.17 and -2.21 ± 0.17.
On the same counts, the results for AGCGAGCAAUAUUACGCGUA are -2.95 ± 0.34 and -1.7 ± 0.18.
For GUGUAGCAAUAUUACGGCUC, in that order: -0.377 ± 0.064 and 0.195 ± 0.077.
For the sequence AAAGAGCAAUAUUACGUAGU, the “self-splicing fitness (ln)” value (30 °C) is -2.39 ± 0.16 and the “self-splicing fitness (ln)” value (37 °C) is -2.46 ± 0.22.
On the same counts, the results for GAAGAGCAAUAUUACGUGAG are -2.97 ± 0.19 and -1.11 ± 0.22.
On the same counts, the results for UGCUAGCAAUAUUACGGUAA are -1.03 ± 0.15 and -1.47 ± 0.12.
For CGGCAGCAAUAUUACGGAGC, in that order: -3.37 ± 0.14 and -3.3 ± 0.2.
Consider GGAGAGCAAUAUUACGUCAU, for which the “self-splicing fitness (ln)” value reads like this: (30 °C) -2.38 ± 0.31; (37 °C) -2.61 ± 0.33.
For CAUGAGCAAUAUUACGUGUG, in that order: -3.67 ± 0.17 and -3.09 ± 0.16.
For GGAGAGCAAUAUUACGGCUG, in that order: -2.1 ± 0.21 and -0.692 ± 0.21.
On the same counts, the results for UAUAAGCAAUAUUACGGCCG are 0.336 ± 0.23 and 0.0314 ± 0.26.
As to GCCCAGCAAUAUUACGCAUA, the “self-splicing fitness (ln)” value runs as follows: (30 °C) -1.61 ± 0.093; (37 °C) -0.164 ± 0.088.
On the same counts, the results for UGCUAGCAAUAUUACGGACA are -0.668 ± 0.098 and 0.41 ± 0.12.
For ACAGAGCAAUAUUACGUGCU, in that order: -4.27 ± 0.37 and -2.48 ± 0.41.
On the same counts, the results for UAGUAGCAAUAUUACGAUCU are -1.22 ± 0.11 and -0.472 ± 0.13.
On to AAGGAGCAAUAUUACGCCAA, for which the “self-splicing fitness (ln)” value was -4.19 ± 0.46 (30 °C) and -3.11 ± 0.3 (37 °C).
For CCAGAGCAAUAUUACGCAUG, in that order: -2.64 ± 0.16 and -1.59 ± 0.16.
For UAAUAGCAAUAUUACGCCCU, in that order: -1.59 ± 0.4 and -0.36 ± 0.38.
For UAAAAGCAAUAUUACGAGAA, in that order: -2.18 ± 0.24 and -0.995 ± 0.16.
For the sequence UAAGAGCAAUAUUACGGAAU, the “self-splicing fitness (ln)” value is -3.52 ± 0.41 (30 °C) and -2.14 ± 0.41 (37 °C).
On the same counts, the results for CAACAGCAAUAUUACGAAAA are -2.73 ± 0.3 and -1.38 ± 0.26.
For GCCAAGCAAUAUUACGAGUU, in that order: -1.7 ± 0.066 and -0.45 ± 0.08.
On the same counts, the results for CUGUAGCAAUAUUACGUAAG are -0.583 ± 0.081 and -0.353 ± 0.082.
GCCUAGCAAUAUUACGCGAA: the “self-splicing fitness (ln)” value was -2.72 ± 0.18 (30 °C) and -1.64 ± 0.14 (37 °C).
For ACCUAGCAAUAUUACGCCAA, in that order: -3.4 ± 0.27 and -2.09 ± 0.23.
As for CACGAGCAAUAUUACGGAUC, the “self-splicing fitness (ln)” value (37 °C) is -2.84 ± 0.3.
Consider AGGUAGCAAUAUUACGCGGA, for which the “self-splicing fitness (ln)” value was -2.062 ± 0.019 (30 °C) and -1.09 ± 0.033 (37 °C).
For AUUAAGCAAUAUUACGUGAG, in that order: -0.882 ± 0.049 and -0.33 ± 0.081.
On the same counts, the results for AGGAAGCAAUAUUACGUAUU are -3.54 ± 0.24 and -0.582 ± 0.15.
With CACUAGCAAUAUUACGACCG, the “self-splicing fitness (ln)” value (30 °C) is 0.413 ± 0.1 and the “self-splicing fitness (ln)” value (37 °C) was found to be 0.573 ± 0.12.
